# Test results reported in the nanobody polyreactivity screen of Harvey et al. (2022).
# Experiment: yeast display, Sf9 membrane polyspecificity reagent, FACS + sequencing; frameworks hold sequencing errors
# Procedure, shortened: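 After 36–48 hours of galactose induction, yeast (Saccharomyces cerevisiae BJ5465) displaying a synthetic nanobody library were stained at 4 °C for 1 hour with 10% biotinylated, detergent-solubilized Sf9 membrane reagent. Streptavidin microbeads enriched the stained cells before FACS sorting into low and high (top ~1%) gates on anti-HA and streptavidin fluorescence. Each clone's polyreactivity label reflects its gate of origin.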
row,Sequence,polyreactivity (PSR sort gate)
1,QVQLVESGGGLVQAGGSLRLSCAASGSTYPYAMGWYRPAPGKERELVAAITWSGGNTYYADSVKGRFTISRDNAKNTVYLQMNSLKPEDTAVYYCAKSRYATQTDYNYWGQGTQVTVSS,high polyreactivity
2,QVQLVESGGGLVQAGGSLRLSCAASGSTYQNAMGWYRQAPGKEREFVAAISWSGGSTYYADSVKGRFTISRDNAKNTVYLQMNSLKPEDTAVYYCAAYSYFSPWYDYWGQGTQVTVSS,high polyreactivity
3,QVQLVESGGGLVQAGGSLRLSCAASGSTYRLYTMGWYRQAPGKERELVAAITSGGSTNYADSVKGRFTISRDNAKNTVYLQMYSLKPEDTAVYYCAKAKRFPSFDYWGQGTQVTVSS,low polyreactivity
4,QVQLVESGGGLVQAGGSLRLSCAASGSTYRPYAMGWYRQAPGKERELVAAITGSGGSTYYADSVKGRFTISRDNAKITDYLQMNSLKPEDTAVYYCNAVSTWRYYYWGQGTQVTVSS,high polyreactivity
5,QVQLVESGGGLVQAGGSLRLSCAASGSTYSTNAMGWYRQAPGKERELVAAISRSGGSTYYADTVKRRFTISRDNAKITVYLQMNRLKPEDTAVYYCARYSFRGTNVRYDYWGQGTQVTVSS,high polyreactivity
6,QVQLVESGGGLVQAGGSLRLSCAASGSTYSYYVMGWYRQAPGKERELVAAISRSGGRTYYADSVKGRFTISRDNAKNTVYLQMNSLKPEDTAVNYCAAREFDHPPYDYWGQGTQVTVSS,high polyreactivity
7,QVQLVESGGGLVQAGGSLRLSCAASGSTYTNAMGWYRPAPGKERELVAAITWSGGTTYYADSVKGRLTISRDNAKNTVYLQMNSLKPEDTAVYYCAAEYRWYSRYFNYWGQGTQVTVSS,high polyreactivity
8,QVQLVESGGGLVQAGGSLRLSCAASGSTYWINAMGWYRQAPGKEREFVAAIRWNGGSTNYADSVKGRFTISRDNAKNTVYLQMNSLKPEDTAVYYCAADGYIGWRHIYEYWGQGTQVTVSS,low polyreactivity
9,QVQLVESGGGLVQAGGSLRLSCAASGSTYWNAMGWYRQAPGKERELVAAITFRGGSTYADSLKGRFTISRDNAKNTVSLQMISLKPEDTAVYYCAKASYHRWYNVRNRAGYDYWGQGTQVTVSS,high polyreactivity
10,QVQLVESGGGLVQAGGSLRLSCAASGSTYYIYAMGWYRQAPGKEREMVAAISDNGGTTYYADSVKGRFTISRDNAKNTVYLQMNSLKPEDTAVYYCNAEGWWYWYYGSYDYWGQGTQVTVSS,high polyreactivity
11,QVQLVESGGGLVQAGGSLRLSCAASGSTYYLYAMGWYRQAPGKERELVAVITWSDGSTYYADSVKGRFTISRDNAKNTVYFQMNSLKPEDTAVSYCAKDLDSGGRGYYWGQGTQVTVSS,low polyreactivity
12,QVQLVESGGGLVQAGGSLRLSCAASGSTYYNAMGWYRQAPGKERELVAAIRFRSGSTYYADSVKGRFTISRDNAKNTVYLQMNSLKPEDTAVYYCNKVPYRGYRRYGYWGQGTQVTVSS,high polyreactivity
13,QVQLVESGGGLVQAGGSLRLSCAASGSTYYSNAMGWYRPAPGKERELVAGIDTSDGSTNYADSVKGRFTISRDNAKNTVYLQMNSLKPEDTAVYYCAADYTQPGFVSYDYWGQGTQVTVSS,low polyreactivity
14,QVQLVESGGGLVQAGGSLRLSCAASGTFAGNAMGWYRQAPGKERELVAAITTGGRTYYADSVKGRFTISRDNAKNTVYLQMNSLKPEDTAVYYCAADRIRDLEFDYWGQGTKVTVSS,low polyreactivity
15,QVQLVESGGGLVQAGGSLRLSCAASGTFARYAMGWYRQAPGKERELVAAISRRGGSTYYADSVKGRFTISRDNAKNTVYLQMNSLKPEDTAVYYCAADNTQVRPKYDYWGQGTQVTVSS,high polyreactivity
16,QVQLVESGGGLVQAGGSLRLSCAASGTFFIYAMGWYRHAPGKERELVATISTGGSTNYADSVKGRFTISRDNAKNTVYLQMNSLKQEDTAVYYCAAEWLYPHDGGYPRPMDYWGQGTQVTVSS,low polyreactivity
17,QVQLVESGGGLVQAGGSLRLSCAASGTFFIYAMGWYRQAPGKERELVATISTGGSTNYADSVKGRFTISRDNAKNTVYLQMNSLKPEDTAVYYCAAEWLYPHDGGYPRPMDYWGQGTQVTVSS,low polyreactivity
